# Laboratory results: the nanobody polyreactivity screen of Harvey et al. (2022)
# Experiment: yeast display, Sf9 membrane polyspecificity reagent, FACS + sequencing; frameworks hold sequencing errors
# Outline: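 Synthetic nanobody libraries on Saccharomyces cerevisiae BJ5465 were galactose-induced for 36–48 hours, stained 1 hour at 4 °C with 10% biotinylated, detergent-solubilized Sf9 membrane reagent and enriched on streptavidin microbeads. FACS then separated cells into low and high (top ~1%) gates by anti-HA (expression) and streptavidin (reagent binding) fluorescence. Genes were colony-PCR amplified, MiSeq 2 × 250 sequenced and CDR-length filtered. A clone's polyreactivity label is that of its gate of origin.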
row,Sequence,polyreactivity (PSR sort gate)
1,QVQLVESGGGLVQAGGSLRLSCAASGRTFERYAMGWYRQAPGKERELVAAISSGGSTNYADSVKGRFTISRDNAKNTVYLQMNSLKPEDTAVYYCNVDWAVKDPSYVSQGEGDYWGQGTQVTVSS,low polyreactivity
2,QVQLVESGGGLVQAGGSLRLSCAASGRTFERYAMGWYRQAPGKERELVAAITSGGSTYYADSVKGRFTISRDNAKNTVYLQMNSLKPEDTAVYYCATSNWWGYDYWGQGTQVTVSS,high polyreactivity
3,QVQLVESGGGLVQAGGSLRLSCAASGRTFETNAMGWYRQAPGKERELVAAISRSGGSTRYADSVKGRFTISRDNAKNTVYLQMNSLKPEDTAVYYCAAETWYRGYKFDYWGQGTQVTVSS,high polyreactivity
4,QVQLVESGGGLVQAGGSLRLSCAASGRTFEWYALGWYRQAPGKERELVAAIRSGGGTNYADSVKGRFTISPDNAKNTVYLQMNSLKPEDTAVYYCAKEWAGGLYDYWGQGTQVTVTS,low polyreactivity
5,QVQLVESGGGLVQAGGSLRLSCAASGRTFFDYAMGWYRQAPGKERELVAAINWSGGRTYYADSVKGRFTISRDNAKNTVYLQMNTLKPEDTAVYYCAKPFSSNSWSHGYWGQGTQVTVSS,low polyreactivity
6,QVQLVESGGGLVQAGGSLRLSCAASGRTFFDYTMGWYRPAPGKERELVAAITGGDGSTYYADSVKGRFTISRDNAKNTVYLQMNSLKPEDTAVYYCAASVWYNPMDYWGQVTQVTVSS,low polyreactivity
7,QVQLVESGGGLVQAGGSLRLSCAASGRTFFEYAMGWYRQAPGKEMDLVAIITNGATTNYADSVKGRFTISRDNAKNTVYLQMNSLKPEDTAVYYCAVAKWQPRRRKYYYWGQGTQVTVSS,high polyreactivity
8,QVQLVESGGGLVQAGGSLRLSCAASGRTFFGYAMGWYRQAPGKERELVATISGSGASTYYADSVKGRFTISRDNAKNTVYLQMNSLKPEDTAVYYCAARYVTTRHSRYYYWGQGTQVTVSS,high polyreactivity
9,QVQLVESGGGLVQAGGSLRLSCAASGRTFFIYAMGWYRQAPGKERELVAAIRWRGGSTYYADSVKGRFTISRDNAKNTVYLQMNSLKPEDTAVYYCAASTRQARYEDYYWGQGTQVTVSS,high polyreactivity
10,QVQLVESGGGLVQAGGSLRLSCAASGRTFFIYAMGWYRQAPGKERELVAAISNGGSTNYADSVKGRFTISRDNAKNPVYLQLNSLKPEDTAVYYCAAQYIGNLRGVFHYEFDWGQGTQVSVSS,high polyreactivity
11,QVQLVESGGGLVQAGGSLRLSCAASGRTFFLNTMGWYRQAPGKERELGAAINWSDGGTYYADSVKGRFTISRDIAKNTVYLQMNSLKPEDTAVYYCAADVYWYYGAPELWYRFDYWGQGTQVTVSS,low polyreactivity
12,QVQLVESGGGLVQAGGSLRLSCAASGRTFFMYAMGRYRQAPGKERELVAAISWGGVSTYYADSVKGRFTISRDNAKNTVYLQMNSLKPEDTAVYYCNAEYYYPRGRYWYDYWGQGTQVTVSS,high polyreactivity
13,QVQLVESGGGLVQAGGSLRLSCAASGRTFFPNAMGWSRQAPGKERELVASITSRGGGTYYADSVKGRFTISRDNAKKTVYLQMNSLKPEDTAVYYCAADRYYFSPGYNWWSEGYDYWGQGTQVTVSS,low polyreactivity
14,QVQLVESGGGLVQAGGSLRLSCAASGRTFFPNAMGWYRPAPAKERELVAAITNGDSTHYADSVKGRFTISRDNAKNTVYLQMNSLKPEDTAVYYCAAEDHYEGYGGYYWGQGTQVTVSS,low polyreactivity
15,QVQLVESGGGLVQAGGSLRLSCAASGRTFFRNAMGWDRQEPGSERELVAGISRSGGSTYYADSVKGRFTISRDNAKNTGYLQMNSLKPEDTAVYYCAAALYPYPGYEYWGQGTQVTVSS,high polyreactivity
16,QVQLVESGGGLVQAGGSLRLSCAASGRTFFRNAMGWYRQAPGKERELVAAISSSGGSTYADSVKGRFTISRDNAKNTVYLQMNSLKPEDTAVYYCAATVRGKRSTYDYWGQGTQVTVSS,high polyreactivity
17,QVQLVESGGGLVQAGGSLRLSCAASGRTFFRYAMGWYRQAPGKERELVAAITRGGSTNYADSVKGRFTISRDNAKNTVYLQMNSLKPEDTAVYYCAKTTFSYRGHYYWGQGTQVTVSS,high polyreactivity
18,QVQLVESGGGLVQAGGSLRLSCAASGRTFFSNAMGWYRPAPGKERELVAAISNGDNTYYADSVKGRFTISRDNAKNTVYLQMNSLKPEDTAVYYCAADQYWSWIYYPVVEYDYWGQGTQVTVSS,low polyreactivity
19,QVQLVESGGGLVQAGGSLRLSCAASGRTFFSYAMGWYRQAPGKEMELVAAISGSGGSTYYADSVKGRFTISRDNAKNTVYLQMNSLKPEDTAVYYCNAYQTTRGLDYWGQGTQVTVSS,low polyreactivity
20,QVQLVESGGGLVQAGGSLRLSCAASGRTFFVNAMGWYRQAPGKERELVATITFSGDSTYYADSVKGRFTISRDNAKNTVYLQMNSLKPEDTAVYYCAVRWPSARIPVKLDYWGQGTQVTVSS,high polyreactivity
21,QVQLVESGGGLVQAGGSLRLSCAASGRTFFVYAMGWYRQAPGKERELVASIRWRGSTYYADSVKGRFTISRDNAKNTVYLKMNSLKPEDTAVYYCAARYPYELGFDYWGQGTQVTVSS,low polyreactivity
22,QVQLVESGGGLVQAGGSLRLSCAASGRTFFVYAMGWYRQAPGKERELVASITLSRGSTYYADSVKGRFTISRDNAKNTCYLQMNSLKPEDTAVYYCSKGWSRDNDREREDEYWGQGTQVTVSS,low polyreactivity

row,Sequence,polyreactivity (PSR sort gate)
1,QVQLVESGGGLVQAGGSLRLSCAASGRTFFWYAMGWYRQAPGKEREFVAAITWRTGSTYYADSVKGRFTISRDNAKNTVYLQMNSLKPEDTAVYYCAAEYPWSYATYYYWGQGTQVTVSS,high polyreactivity
2,QVQLVESGGGLVQAGGSLRLSCAASGRTFFYYAMGWYRQAPGKERELFATITKRGGSTYYADSVKGRFTISRDNAKNTVYLQMNSLKPEDTAVYYCAATYYRQGRRYLGYDYWGQGTQVTVSS,high polyreactivity
3,QVQLVESGGGLVQAGGSLRLSCAASGRTFFYYAMGWYRQAPGKERELVAAISTNGGSTYYADSVKGRFTISRDNAKNTVYLQMNSMKPDDTAVYYCNTYAKPHRSGGGLGGHYYWGQGTQVTVSS,low polyreactivity
4,QVQLVESGGGLVQAGGSLRLSCAASGRTFFYYSMGWYRQAPGKERELVATITKRGGSTYYADSVKGRFTISRDNAKNTVYLQMNSLKPEDTAVYYCNATLGRTTAVFKYYWGQGTQVTVSS,high polyreactivity
5,QVQLVESGGGLVQAGGSLRLSCAASGRTFGANAMGWYRQAPGKERELVAGITSSGGSTSYADSVKGRFTISRDNAKNTVYLQMNSLKPEDTAVYYCAKDVYQHIFDVILGGYDSWGQGTQVTVSS,low polyreactivity
6,QVQLVESGGGLVQAGGSLRLSCAASGRTFGFNVMGRYRQAPGKERELVAAISWSGGSTYYADSVKGRFTISRDNAKNTVYLQMTSLKPEDTAVYYCNKRYVHRYGYWGQGTQVTVSS,low polyreactivity
7,QVQLVESGGGLVQAGGSLRLSCAASGRTFGGNAMGWYRQAPGKERELVAAISLSGGTTYYADSVKGRFTISRDNAKNTVYLQMHSLKPEDTAVYYCAARFKSVDYVQYYYWGQGTQVTVSS,low polyreactivity
8,QVQLVESGGGLVQAGGSLRLSCAASGRTFGGNAMGWYRQAPGKERELVAAITGRGGSTFYADSVKGRFTISRDNAKNTVYLQMNSLKPEDTAVYYCAKQFKRGYGYDYWGQGTQVTVSS,low polyreactivity
9,QVQLVESGGGLVQAGGSLRLSCAASGRTFGGNAMGWYRQAPGKERELVAAITGRGGSTYYADSVKGRFTISRDNAKNTVYLQMNSLKPEDTAVYYCAKQFKRGYGYDYWGQGTQVTVSS,low polyreactivity
10,QVQLVESGGGLVQAGGSLRLSCAASGRTFGGNGMGWYRQAPGKERELVASISFSGGAGTYYADSVKGRFTISRDIAKNTVYLQMNSLKPEDTAVYYCAKRYVTPTYRRYYWGQGTQVTVSS,high polyreactivity
11,QVQLVESGGGLVQAGGSLRLSCAASGRTFGGNVRVWYRQAPGKERELVAAISYSGRSTHYAESVKGRFTISRDNAKNTVILQMNSLKPEDTAVYYCNKPFPYYPDGPNGYDYWGQGTKVTVSS,low polyreactivity
12,QVQLVESGGGLVQAGGSLRLSCAASGRTFGGYALGWYRQAPGKARELVAAITWSDTSTYYADSVKGRFRFSRDNAKNTVYLQMNSLKPEDTAVYYCAAEQWYWWDDYWGKGTQVTVSS,high polyreactivity
13,QVQLVESGGGLVQAGGSLRLSCAASGRTFGGYAMGWYRQAPGKERELVAAISSGGGTYADSVKGRFTISRDNAKNTVYLQMNSLKPEDTAVYYCAAGSRWYWAYKPTVHYYYWGQGTQVTVSS,high polyreactivity
14,QVQLVESGGGLVQAGGSLRLSCAASGRTFGGYAMGWYRQAPGKERELVAAISYSGGSTYYADSVKGRFTISRDNAKNTVYLQMNSLKPEDTAVYYCAADGYDAYYWGQGTQVTVSS,low polyreactivity
15,QVQLVESGGGLVQAGGSLRLSCAASGRTFGHNAMGWYRQAPGKERELVAAISASGSNTYYADSVKGRFTISRDNAKNTVYLQMNSLKPEDTAVYYCAKQVYRTGQQSRYDYWGQGTQVTVSS,low polyreactivity
16,QVQLVESGGGLVQAGGSLRLSCAASGRTFGHYAMGWYRQAPGKERELVAAISCRGTSTYYADSVKGRFTISRDNAKNTVYLQMNSLKPEDTAVYYCAAVSVTSYRYDYWGQGTQVTVSS,high polyreactivity
17,QVQLVESGGGLVQAGGSLRLSCAASGRTFGINAMGWYRQAPGKERELVADITDSGVSTYYADSVKGRFTISRDNAKNTVYLQMNSLKPEDTAVYYCNTGSYLFFLYGDDYWGQGTQVTVSS,low polyreactivity
18,QVQLVESGGGLVQAGGSLRLSCAASGRTFGIYAMGRYRQAPGKERELVAAITGRGGSTHYADSVKGRFTISRDNAKNTVYLQMNSLKPEDTAVYYCAADYRYNRGITSNKDYDYWGQGTQVTVSS,low polyreactivity
19,QVQLVESGGGLVQAGGSLRLSCAASGRTFGIYAMGWYRQAPGKERELVAAITWSGDSTYYADSVKGRVTISRDNAKNTVYLQMNSLKPEDTAVYYGAADYVGVTSVRYDYWGQGTQVTVSS,low polyreactivity
20,QVQLVESGGGLVQAGGSLRLSCAASGRTFGIYAMGWYRQAPGKERELVADITIGGSTYYADSVKGRFTISRDNAKNTVYLQMNSLKPEDTAVYYCNADVVVQYYFTYYRVFTYDYWGQGTQVTVSS,low polyreactivity
21,QVQLVESGGGLVQAGGSLRLSCAASGRTFGIYAMGWYRQAPGKERELVASISWSGGRTYYADSVKGRFTISRDNAKNTVYLQMNSLIPEDTAVYYCAAYGVYYPRSWQYFDWYGYWGQGTQVTVSS,high polyreactivity
